Key:
[1] = target: human MDM2 (ubiquitin-protein ligase E3 MDM2), cell-free expressed with C-terminal HSV epitope tag and polyhistidine tag (UniProt Q00987)
[2] = target: human p53 oncoprotein (cellular tumor antigen p53), cell-free expressed from pETBlue-2 with C-terminal HSV epitope tag and polyhistidine tag (UniProt P04637)
[3] = tested on: Human casein kinase II (CK), cell-free expressed with C-terminal HSV epitope tag and polyhistidine tag
[4] = target: human protein kinase A catalytic subunit alpha, cell-free expressed with C-terminal HSV epitope tag and polyhistidine tag (UniProt P17612)

With “human recombinant Src pp60 tyrosine kinase (Invitrogen Corporation)” the “phosphorylation of photo-transferred protein on microarray, anti-phosphotyrosine (RC20) detection” value (shortened to “phosphorylation”) [1] was “Both kinases heavily phosphorylate the MDM protein”, the “phosphorylation” value [2] was “p53 is not phosphorylated by either kinase” and the “phosphorylation” value [3] was “significant phosphorylation of CK and PKA”. For the same substance, the “phosphorylation” value [4] was “significant phosphorylation of CK and PKA”.

— patent US20180017550
